# From patent US20230193255
# Tests used:
# [1] = biological target: Variant TEV cleavage site ENLFFQS
# [2] = biological target: TEV cleavage site ENLYFQS
# [3] = biological target: Variant TEV cleavage site ENVYFQS
protein,measurement,setting,value
TEV protease S219V mutant (protein) ESLFKGPRDYNPISSTICHLTNESDGHTTSLYGIGFGPFIITNKHLFRRNNGTLLVQSLHGVFKVKNTTTLQQHLIDGRDMIIIRMPKDFPPFPQKLKFREPQREERICLVTTNFQTKSMSSMVSDTSCTFPSSDGIFWKHWIQTKDGQCGSPLVSTRDGFIVGIHSASNFTNTNNYFTSVPKNFMELLTNQEAQQWVSGWRLNADSVLWGGHKVFMVKPEEPFQPVKEATQLMN,efficiency of cleavage by TEV at the TCS,[1],found to exhibit 10% efficiency
same,efficiency of cleavage by TEV at the TCS,[2],considered to be 100% efficient
same,efficiency of cleavage by TEV at the TCS,[3],found to exhibit 1% efficiency
